The experiment addresses T1, His6-tagged M. tuberculosis PpiA (cyclophilin A) (Mycobacterium tuberculosis H37Rv, UniProt P9WHW3 1-182).
T1 construct: also called Rv0009; MTBPPIA
Description: native gel or EMSA. The conditions noted are these: both partners purified. (In EMSA bound probe runs differently from free probe, usually more slowly.)

B1: purified M. tuberculosis Ef-Tu (Tuf) (natural protein)
chain: not shown
Consider B1, for which the binding result is “binds”.

For the origin of these results see publication PMC3913756, “Mycobacterium tuberculosis Cyclophilin A Uses Novel Signal Sequence for Secretion and Mimics Eukaryotic Cyclophilins for Interaction with Host Protein Repertoire” (PLoS ONE, 2014).
